Laboratory results as given in the Immune Epitope Database (IEDB).

How the values were obtained:
[1] = target: HLA-A*26:01; test: IEDB peptide-MHC binding, purified MHC/competitive/fluorescence; filed as Kd, often an IC50 or EC50 that approximates it; ≥ and ≤ were set here for values at or beyond the usual limits of such assays; settings: source organism: Orthomarburgvirus marburgense
[2] = target: HLA-A*30:01; test: as above; settings: source organism: Orthomarburgvirus marburgense
[3] = target: HLA-A*02:01; test: as above; settings: source organism: Orthomarburgvirus marburgense
[4] = target: HLA-A*31:01; test: as above; settings: source organism: Orthomarburgvirus marburgense
[5] = target: HLA-A*11:01; test: as above; settings: source organism: Orthomarburgvirus marburgense
[6] = target: HLA-A*02:03; test: as above
[7] = target: HLA-B*15:17; test: IEDB peptide-MHC binding, purified MHC/direct/fluorescence; filed as Kd, often an IC50 or EC50 that approximates it; ≥ and ≤ were set here for values at or beyond the usual limits of such assays
[8] = target: HLA-B*15:02; test: as above
[9] = target: HLA-B*58:01; test: as above
[10] = target: HLA-B*57:01; test: as above
[11] = target: HLA-B*46:01; test: as above
[12] = target: HLA-B*07:02; test: as above
[13] = target: HLA-A*68:02; test: as above; settings: source organism: Marburg virus - Musoke, Kenya, 1980
[14] = target: HLA-A*01:01; test: as above
[15] = target: HLA-B*48:01; test: as above
[16] = target: HLA-A*69:01; test: as above
[17] = target: HLA-B*08:01; test: as above
[18] = target: HLA-B*15:01; test: as above
[19] = target: HLA-B*27:05; test: as above
[20] = target: HLA-A*02:06; test: IEDB peptide-MHC binding, purified MHC/competitive/fluorescence; filed as Kd, often an IC50 or EC50 that approximates it; ≥ and ≤ were set here for values at or beyond the usual limits of such assays; settings: source organism: Corynebacterium glutamicum ATCC 13032
[21] = target: HLA-A*02:12; test: as above; settings: source organism: Corynebacterium glutamicum ATCC 13032
[22] = target: HLA-A*02:11; test: as above; settings: source organism: Corynebacterium glutamicum ATCC 13032
[23] = target: HLA-A*02:50; test: as above; settings: source organism: Corynebacterium glutamicum ATCC 13032
[24] = target: HLA-A*26:01; test: IEDB peptide-MHC binding, purified MHC/direct/fluorescence; filed as Kd, often an IC50 or EC50 that approximates it; ≥ and ≤ were set here for values at or beyond the usual limits of such assays; settings: source organism: Corynebacterium glutamicum
[25] = target: HLA-A*02:01; test: as above
[26] = target: HLA-A*31:01; test: as above
[27] = target: HLA-A*11:01; test: as above
[28] = target: HLA-A*03:01; test: as above
[29] = target: HLA-B*40:01; test: as above
[30] = target: HLA-B*39:01; test: IEDB peptide-MHC binding, purified MHC/competitive/fluorescence; filed as Kd, often an IC50 or EC50 that approximates it; ≥ and ≤ were set here for values at or beyond the usual limits of such assays; settings: source organism: Vibrio cholerae 2740-80
[31] = target: HLA-B*15:09; test: as above; settings: source organism: Vibrio cholerae 2740-80
[32] = target: HLA-B*08:02; test: IEDB peptide-MHC binding, purified MHC/direct/fluorescence; filed as Kd, often an IC50 or EC50 that approximates it; ≥ and ≤ were set here for values at or beyond the usual limits of such assays; settings: source organism: Vibrio cholerae V52
[33] = target: HLA-B*18:01; test: as above
[34] = target: HLA-B*51:01; test: as above; settings: source organism: Vibrio cholerae
[35] = target: HLA-A*30:02; test: IEDB peptide-MHC binding, purified MHC/competitive/radioactivity; filed as Kd, often an IC50 or EC50 that approximates it; ≥ and ≤ were set here for values at or beyond the usual limits of such assays; settings: source organism: Dengue virus 3 Martinique/1243/1999
[36] = target: HLA-B*73:01; test: IEDB peptide-MHC binding, purified MHC/competitive/fluorescence; filed as Kd, often an IC50 or EC50 that approximates it; ≥ and ≤ were set here for values at or beyond the usual limits of such assays; settings: source organism: Brucella abortus S19
[37] = target: HLA-B*15:17; test: as above; settings: source organism: Vaccinia virus Tian Tan
[38] = target: HLA-A*68:02; test: as above; settings: source organism: Vaccinia virus Tian Tan
[39] = target: HLA-A*26:02; test: as above; settings: source organism: Vaccinia virus Tian Tan
[40] = target: HLA-B*44:02; test: IEDB peptide-MHC binding, purified MHC/direct/fluorescence; filed as Kd, often an IC50 or EC50 that approximates it; ≥ and ≤ were set here for values at or beyond the usual limits of such assays; settings: source organism: Camelpox virus CMS
[41] = target: HLA-A*26:03; test: as above; settings: source organism: Variola virus
[42] = target: HLA-B*57:01; test: IEDB peptide-MHC binding, purified MHC/competitive/fluorescence; ≥ and ≤ were set here for values at or beyond the usual limits of such assays; settings: source organism: Homo sapiens
[43] = source organism: Marburg virus - Musoke, Kenya, 1980
[44] = source organism: Ravn virus - Ravn, Kenya, 1987
[45] = source organism: Corynebacterium glutamicum
[46] = source organism: Vibrio cholerae
[47] = source organism: dengue virus type 3
[48] = source organism: Camelpox virus CMS

ALFHKVQSY
Kd [1]: 1.14 µM
Kd [2]: 0.438 µM
Kd [3]: 1.31 µM
Kd [4]: 3.92 µM
Kd [5]: 1.94 µM
Kd ([6]; source organism: Orthomarburgvirus marburgense): 1.56 µM
Kd [7, 43]: 0.0046 µM
Kd [8, 44]: 0.038 µM
Kd [9, 43]: ≥ 20 µM
Kd [10, 43]: ≥ 20 µM
Kd [11, 43]: ≥ 20 µM
Kd [12, 43]: ≥ 20 µM
Kd [13]: ≥ 20 µM
Kd [14, 43]: ≥ 20 µM
Kd [15, 43]: ≥ 20 µM
Kd [16, 43]: ≥ 20 µM
Kd [17, 44]: ≥ 20 µM
Kd [18, 43]: 0.0205 µM
Kd [19, 43]: ≥ 20 µM

FLPGQYMNI
Kd [20]: ≤ 0.0001 µM
Kd [21]: ≤ 0.0001 µM
Kd [22]: ≤ 0.0001 µM
Kd ([6]; source organism: Corynebacterium glutamicum ATCC 13032): ≤ 0.0001 µM
Kd [23]: ≤ 0.0001 µM
Kd [9, 45]: ≥ 20 µM
Kd [24]: ≥ 20 µM
Kd [12, 45]: ≥ 20 µM
Kd [14, 45]: ≥ 20 µM
Kd [25, 45]: 0.0728 µM
Kd [26, 45]: ≥ 20 µM
Kd [27, 45]: ≥ 20 µM
Kd [28, 45]: ≥ 20 µM
Kd [16, 45]: 0.404 µM
Kd [17, 45]: ≥ 20 µM
Kd [18, 45]: ≥ 20 µM
Kd [29, 45]: ≥ 20 µM
Kd [19, 45]: ≥ 20 µM

FPLTQRDVL
Kd [30]: 0.0144 µM
Kd [31]: 0.358 µM
Kd [32]: ≥ 20 µM
Kd [7, 46]: ≥ 20 µM
Kd [9, 46]: ≥ 20 µM
Kd [10, 46]: ≥ 20 µM
Kd [11, 46]: ≥ 20 µM
Kd [33, 46]: 1.9 µM
Kd [12, 46]: 0.046 µM
Kd [14, 46]: ≥ 20 µM
Kd [34]: 2.82 µM
Kd [15, 46]: ≥ 20 µM
Kd [25, 46]: ≥ 20 µM
Kd [26, 46]: ≥ 20 µM
Kd [27, 46]: ≥ 20 µM
Kd [28, 46]: ≥ 20 µM
Kd [16, 46]: 0.719 µM
Kd [18, 46]: ≥ 20 µM
Kd [29, 46]: ≥ 20 µM
Kd [19, 46]: ≥ 20 µM

KQIANELNY
Kd [35]: ≥ 76.9 µM
Kd [8, 47]: ≥ 20 µM
Kd [11, 47]: ≥ 20 µM

NEAWGKKPV
Kd [36]: ≥ 20 µM

REVFYFGKF
Kd [37]: ≥ 20 µM
Kd [38]: 3.04 µM
Kd [39]: 2.35 µM
Kd [9, 48]: ≥ 20 µM
Kd [40]: ≥ 20 µM
Kd [41]: ≥ 20 µM
Kd [10, 48]: ≥ 20 µM
Kd [33, 48]: 0.813 µM
Kd [12, 48]: ≥ 20 µM
Kd [14, 48]: ≥ 20 µM
Kd [15, 48]: ≥ 20 µM
Kd [25, 48]: ≥ 20 µM
Kd [26, 48]: ≥ 20 µM
Kd [27, 48]: ≥ 20 µM
Kd [16, 48]: ≥ 20 µM
Kd [29, 48]: 0.0617 µM
Kd [19, 48]: ≥ 20 µM

STIRLLTSL
IC50 [42]: 0.853 µM
